Biological target: hERG (UniProt Q12809 1-1159)
Experiment: cell-based or functional assay

Chain of hERG (Q12809 whole entry): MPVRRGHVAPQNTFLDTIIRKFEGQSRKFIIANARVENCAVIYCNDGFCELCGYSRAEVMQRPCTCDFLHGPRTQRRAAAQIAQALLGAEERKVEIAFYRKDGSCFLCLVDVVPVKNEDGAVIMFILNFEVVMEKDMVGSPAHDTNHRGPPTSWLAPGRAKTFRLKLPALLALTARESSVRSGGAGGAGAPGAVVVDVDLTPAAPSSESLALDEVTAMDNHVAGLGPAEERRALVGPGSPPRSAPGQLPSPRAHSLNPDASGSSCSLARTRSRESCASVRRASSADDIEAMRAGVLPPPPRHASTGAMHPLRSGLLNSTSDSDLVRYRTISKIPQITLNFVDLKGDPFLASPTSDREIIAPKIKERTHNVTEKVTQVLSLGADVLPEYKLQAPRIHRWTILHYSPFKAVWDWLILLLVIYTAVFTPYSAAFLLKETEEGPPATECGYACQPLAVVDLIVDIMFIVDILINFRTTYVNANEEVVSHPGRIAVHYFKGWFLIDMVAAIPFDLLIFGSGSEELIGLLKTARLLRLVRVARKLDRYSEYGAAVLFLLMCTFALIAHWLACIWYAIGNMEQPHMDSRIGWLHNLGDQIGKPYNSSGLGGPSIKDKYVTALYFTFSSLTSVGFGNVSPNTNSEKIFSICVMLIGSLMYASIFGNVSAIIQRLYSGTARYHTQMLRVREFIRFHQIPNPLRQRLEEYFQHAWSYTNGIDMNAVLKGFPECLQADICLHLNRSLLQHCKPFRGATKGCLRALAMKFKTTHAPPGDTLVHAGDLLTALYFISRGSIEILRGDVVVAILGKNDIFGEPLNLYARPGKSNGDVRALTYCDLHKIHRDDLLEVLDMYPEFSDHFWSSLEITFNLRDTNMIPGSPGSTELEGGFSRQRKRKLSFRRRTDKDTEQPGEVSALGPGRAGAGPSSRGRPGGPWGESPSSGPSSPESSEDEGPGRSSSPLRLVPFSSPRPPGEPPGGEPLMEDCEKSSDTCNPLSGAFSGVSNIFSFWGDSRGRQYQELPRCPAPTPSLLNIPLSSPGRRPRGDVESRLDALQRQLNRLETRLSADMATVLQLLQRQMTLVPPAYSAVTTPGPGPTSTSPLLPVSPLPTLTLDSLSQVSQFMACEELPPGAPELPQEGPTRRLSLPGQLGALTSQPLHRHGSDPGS

Q: VKFNKPFVFLMIEQNTK [SP16] was tested. Which “IC50 value (µM), hERG FastPatch assay” value did it give?
A: The value was over 25 µM.

Source: patent US20210369822A1 (published 2021)
